Molecular target: T1, MYO10 motor domain 1-741 (Homo sapiens, UniProt Q9HD67)
T1 chain: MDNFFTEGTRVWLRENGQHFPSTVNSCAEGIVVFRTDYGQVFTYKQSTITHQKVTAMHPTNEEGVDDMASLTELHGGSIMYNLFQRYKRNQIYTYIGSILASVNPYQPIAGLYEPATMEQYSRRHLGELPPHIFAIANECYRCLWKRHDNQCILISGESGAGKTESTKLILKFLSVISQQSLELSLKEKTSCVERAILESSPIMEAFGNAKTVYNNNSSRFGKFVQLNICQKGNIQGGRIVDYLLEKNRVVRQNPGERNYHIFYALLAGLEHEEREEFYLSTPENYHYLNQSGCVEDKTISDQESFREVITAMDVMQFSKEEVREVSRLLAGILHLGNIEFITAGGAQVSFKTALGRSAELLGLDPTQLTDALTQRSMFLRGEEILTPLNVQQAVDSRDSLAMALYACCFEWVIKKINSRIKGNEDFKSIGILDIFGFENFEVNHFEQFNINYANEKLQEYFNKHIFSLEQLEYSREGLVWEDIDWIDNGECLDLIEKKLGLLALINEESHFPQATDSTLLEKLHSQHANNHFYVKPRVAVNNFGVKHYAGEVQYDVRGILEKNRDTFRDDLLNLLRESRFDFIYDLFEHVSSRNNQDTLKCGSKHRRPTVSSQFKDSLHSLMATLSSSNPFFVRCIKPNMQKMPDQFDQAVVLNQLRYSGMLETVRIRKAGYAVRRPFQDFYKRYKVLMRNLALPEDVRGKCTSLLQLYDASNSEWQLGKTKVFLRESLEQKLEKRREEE
Experiment: MST

Kd: 1160 nM
B1: CCT8 (protein)
chain: ALHVPKAPGFAQMLKEGAKHFSGLEEAVYRNIQACKELAQTTRTAYGPNGMNKMVINHLEKLFVTNDAATILRELEVQHPAAKMIVMASHMQEQEVGDGTNFVLVFAGALLELAEELLRIGLSVSEVIEGYEIACRKAHEILPNLVCCSAKNLRDIDEVSSLLRTSIMSKQYGNEVFLAKLIAQACVSIFPDSGHFNVDNIRVCKILGSGISSSSVLHGMVFKKETEGDVTSVKDAKIAVYSCPFDGMITETKGTVLIKTAEELMNFSKGEENLMDAQVKAIADTGANVVVTGGKVADMALHYANKYNIMLVRLNSKWDLRRLCKTVGATALPRLTPPVLEEMGHCDSVYLSEVGDTQVVVFKHEKEDGAISTIVLRGSTDNLMDDIERAVDDGVNTFKVLTRDKRLVPGGGATEIELAKQITSYGETCPGLEQYAIKKFAEAFEAIPRALAENSGVKANEVISKLYAVHQEGNKNVGLDIEAEVPAVKDMLEAGILDTYLGKYWAIKLATNAAVTVLRVDQIIMAKPAGGPKPPSGKKDWDDDQND

Reference: article PMC13676896 (2026)
